Results as given in the supplement of paper PMC9233669.
Fewer inactive variants are shown than the library holds.

Legend:
[1] = tested on: biotinyl-Phe-oxazolone; experiment: self-aminoacylation, catalytic enhancement (BFO) (fold over background); higher = more active; k-Seq, kA / k0A0; sequences stand for … in GGGAAUGGAUCCACAUCUACGAAUUC…UUCACUGCAGACUUGACGAAGCUG
Method in brief: (§1)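 Catalytic enhancement equals the median kA over the uncatalyzed rate, the latter read from the low-activity peak of a bimodal Gaussian fit. Values of kA came from fitting each sequence's fraction reacted to a pseudo-first-order model, with 1000 bootstraps. Reacted RNA was captured with streptavidin and quantified by triplicate qPCR and Illumina sequencing after 90 minutes at room temperature with 2–1250 μM biotinyl-aminoacyl-oxazolone and 0.43 μM mutagenized RNA pools bearing a 21-nt variable region.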

[2] = tested on: biotinyl-Ile-oxazolone; experiment: self-aminoacylation, catalytic enhancement (BIO) (fold over background); higher = more active; k-Seq, kA / k0A0; sequences stand for … in GGGAAUGGAUCCACAUCUACGAAUUC…UUCACUGCAGACUUGACGAAGCUG
Method in brief: as §1

[3] = tested on: biotinyl-Val-oxazolone; experiment: self-aminoacylation, catalytic enhancement (BVO) (fold over background); higher = more active; k-Seq, kA / k0A0; sequences stand for … in GGGAAUGGAUCCACAUCUACGAAUUC…UUCACUGCAGACUUGACGAAGCUG
Method in brief: as §1

[4] = tested on: biotinyl-Leu-oxazolone; experiment: self-aminoacylation, catalytic enhancement (BLO) (fold over background); higher = more active; k-Seq, kA / k0A0; sequences stand for … in GGGAAUGGAUCCACAUCUACGAAUUC…UUCACUGCAGACUUGACGAAGCUG
Method in brief: as §1

[5] = tested on: biotinyl-Trp-oxazolone; experiment: self-aminoacylation, catalytic enhancement (BWO) (fold over background); higher = more active; k-Seq, kA / k0A0; sequences stand for … in GGGAAUGGAUCCACAUCUACGAAUUC…UUCACUGCAGACUUGACGAAGCUG
Method in brief: as §1

[6] = tested on: biotinyl-Met-oxazolone; experiment: self-aminoacylation, catalytic enhancement (BMO) (fold over background); higher = more active; k-Seq, kA / k0A0; sequences stand for … in GGGAAUGGAUCCACAUCUACGAAUUC…UUCACUGCAGACUUGACGAAGCUG
Method in brief: as §1

Row | Sequence | self-aminoacylation [1] | self-aminoacylation [2] | self-aminoacylation [3] | self-aminoacylation [4] | self-aminoacylation [5] | self-aminoacylation [6]
1 | AAUCACCUAGGUCAUGGGGUG [Fam2.2 aminoacylation ribozyme variant] | 19.4 | 3.44 | 3.71 | 4.25 | 4.91 | 3.26
2 | AAUCACCUAGGUUAUCGGGUG [Fam2.2 aminoacylation ribozyme variant] | 38.4 | 3.83 | 4.23 | 4.57 | 7.07 | 4.32
3 | AAUCACCUAGUUCAUCGGGUG [Fam2.2 aminoacylation ribozyme variant] | 16.3 | 3.01 | 3.16 | 2.59 | 3.72 | 3.33
4 | AAUCACCUUGGUCAUCGGGUG [Fam2.2 aminoacylation ribozyme variant] | 43.2 | 4.22 | 5.18 | 6.76 | 8.74 | 6.06
5 | AAUCACGUAGGUCAUCGGGUG [Fam2.2 aminoacylation ribozyme variant] | 30.4 | 3.09 | 3.77 | 4.02 | 4.86 | 3.19
6 | AAUCAGCUAGGUCAUCGGGUG [Fam2.2 aminoacylation ribozyme variant] | 37.5 | 5.2 | 6.64 | 5.01 | 7.54 | 4.97
7 | AAUUUGGCUAAUAGUCGCAAG [Fam3.1 aminoacylation ribozyme variant] | 2.14 | 1.79 | 1.7 | 1.96 | 1.99 | 1.82
8 | AAUUUUGCCAAUAGUCGCAAG [Fam3.1 aminoacylation ribozyme variant] | 2.34 | 1.78 | 1.69 | 1.8 | 1.8 | 2.31
9 | AAUUUUGCUAAUAGCCGCAAG [Fam3.1 aminoacylation ribozyme variant] | 1.7 | 1.74 | 1.44 | 1.49 | 1.31 | 1.33
10 | AAUUUUGCUAAUAGUCGAAAG [Fam3.1 aminoacylation ribozyme variant] | 3.69 | 1.56 | 0.991 | 1.2 | 2.11 | 1.16
11 | AAUUUUGCUAAUAGUGGCAAG [Fam3.1 aminoacylation ribozyme variant] | 0.836 | 0.771 | 0.632 | 0.633 | 0.652 | 0.798
12 | AAUUUUGCUAAUAGUUGCAAG [Fam3.1 aminoacylation ribozyme variant] | 2.06 | 1.73 | 1.53 | 1.63 | 1.75 | 1.54
13 | AAUUUUGCUAAUAUUCGCAAG [Fam3.1 aminoacylation ribozyme variant] | 1.5 | 1.92 | 1.5 | 1.57 | 2.15 | 1.55
14 | AAUUUUGCUACUAGUCGCAAG [Fam3.1 aminoacylation ribozyme variant] | 2.25 | 1.87 | 1.74 | 1.54 | 2.5 | 1.53
15 | AAUUUUGCUCAUAGUCGCAAG [Fam3.1 aminoacylation ribozyme variant] | 3.17 | 1.85 | 1.57 | 1.98 | 1.69 | 1.82
16 | ACAACCCUGGUCAUCGAGUGA [Fam2.1 aminoacylation ribozyme variant] | 17.4 | 6.16 | 5.2 | 12.2 | 12.5 | 11.4
17 | ACACAAUUCAAGCAAUCGGUC [Fam1B.1 aminoacylation ribozyme variant] | 1.95 | 1.44 | 1.18 | 1.21 | 1.67 | 1.21
18 | ACACACUCCAAGCAAUCGGUC [Fam1B.1 aminoacylation ribozyme variant] | 1.92 | 0.959 | 0.924 | 0.864 | 0.999 | 0.768
19 | ACACACUUCAAGCAAUCAGUC [Fam1B.1 aminoacylation ribozyme variant] | 9.33 | 1.12 | 1.11 | 0.999 | 4.18 | 0.988
20 | ACACACUUCAAGCAAUCGGUA [Fam1B.1 aminoacylation ribozyme variant] | 2 | 1.73 | 1.55 | 1.84 | 2.19 | 1.66
21 | ACACACUUCAAGCUAUCGGUC [Fam1B.1 aminoacylation ribozyme variant] | 1.15 | 1.33 | 1.2 | 1.1 | 0.982 | 1.03
22 | ACACACUUGAAGCAAUCGGUC [Fam1B.1 aminoacylation ribozyme variant] | 1.25 | 1 | 1.23 | 0.919 | 1.17 | 0.88
23 | ACACACUUUAAGCAAUCGGUC [Fam1B.1 aminoacylation ribozyme variant] | 1.34 | 1.06 | 0.949 | 0.948 | 1.03 | 0.832
24 | ACGUAUGCUAAUAGUCGCAAG [Fam3.1 aminoacylation ribozyme variant] | 1.96 | 1.61 | 1.43 | 1.72 | 1.29 | 1.35
25 | ACGUUCGCUAAUAGUCGCAAG [Fam3.1 aminoacylation ribozyme variant] | 1.62 | 1.84 | 1.91 | 1.96 | 2.21 | 1.24
26 | ACGUUUGCUAAUAGACGCAAG [Fam3.1 aminoacylation ribozyme variant] | 0.853 | 1.3 | 1.12 | 0.849 | 1.11 | 0.935

Row | Sequence | self-aminoacylation [1] | self-aminoacylation [2] | self-aminoacylation [3] | self-aminoacylation [4] | self-aminoacylation [5] | self-aminoacylation [6]
27 | ACGUUUGCUAAUAGUCGCAAU [Fam3.1 aminoacylation ribozyme variant] | 2.06 | 1.66 | 1.33 | 1.51 | 1.53 | 1.45
28 | ACGUUUGCUAAUAGUCGCACG [Fam3.1 aminoacylation ribozyme variant] | 3.42 | 2.43 | 2.05 | 2.26 | 2.13 | 2.53
29 | ACGUUUGCUAAUAGUCGUAAG [Fam3.1 aminoacylation ribozyme variant] | 15.7 | 1.14 | 1.1 | 1.04 | 4.64 | 1.27
30 | ACGUUUGCUACUAGUCGCAAG [Fam3.1 aminoacylation ribozyme variant] | 2.4 | 1.76 | 1.47 | 1.7 | 1.31 | 2.16
31 | ACGUUUGCUGAUAGUCGCAAG [Fam3.1 aminoacylation ribozyme variant] | 4.7 | 1.52 | 1.35 | 1.57 | 1.69 | 1.12
32 | ACGUUUUCUAAUAGUCGCAAG [Fam3.1 aminoacylation ribozyme variant] | 2.79 | 1.75 | 1.53 | 1.67 | 1.55 | 1.59
33 | ACUACACUGGUCAUCGAGUGA [Fam2.1 aminoacylation ribozyme variant] | 13.7 | 3.3 | 3 | 4.81 | 5.78 | 4.45
34 | ACUACCAUGGUCAUCGAGUGA [Fam2.1 aminoacylation ribozyme variant] | 34.8 | 4.61 | 4.53 | 7.97 | 9.5 | 6.31
35 | ACUACCCCGGUCAUCGAGUGA [Fam2.1 aminoacylation ribozyme variant] | 30.8 | 3.29 | 2.87 | 5.9 | 5.9 | 5.95
36 | ACUACCCUGGCCAUCGAGUGA [Fam2.1 aminoacylation ribozyme variant] | 27.3 | 3.53 | 3.77 | 6.69 | 7.18 | 4.33
37 | ACUACCCUGGUAAUCGAGUGA [Fam2.1 aminoacylation ribozyme variant] | 43.4 | 3.32 | 3.16 | 7.43 | 9.29 | 7.36
38 | ACUACCCUGGUCAUAGAGUGA [Fam2.1 aminoacylation ribozyme variant] | 38.1 | 3.26 | 3.19 | 7.11 | 7.77 | 6.89
39 | ACUACCCUGGUCAUCGAGUGC [Fam2.1 aminoacylation ribozyme variant] | 10.1 | 2.18 | 2.44 | 5.6 | 4.17 | 5.55
40 | ACUACCCUGGUCAUCGAGUGG [Fam2.1 aminoacylation ribozyme variant] | 110 | 7 | 8.27 | 22.5 | 20.2 | 20.8
41 | ACUACCCUGGUCAUCGAUUGA [Fam2.1 aminoacylation ribozyme variant] | 1.59 | 1.01 | 1.02 | 1.16 | 1.16 | 1.05
42 | ACUACCCUGGUUAUCGAGUGA [Fam2.1 aminoacylation ribozyme variant] | 33.1 | 3.67 | 4.43 | 8.45 | 7.91 | 7.03
43 | ACUAUCCUGGUCAUCGAGUGA [Fam2.1 aminoacylation ribozyme variant] | 18.4 | 3.7 | 3.62 | 6.46 | 8.06 | 6.19
44 | ACUCAACUAGGUCAUCGGGUG [Fam2.2 aminoacylation ribozyme variant] | 48 | 5.56 | 4.88 | 6.97 | 5.38 | 5.62
45 | ACUCACCUAGCUCAUCGGGUG [Fam2.2 aminoacylation ribozyme variant] | 0.904 | 2.02 | 1.92 | 2.17 | 2.44 | 2.47
46 | ACUCACCUAGGUCACCGGGUG [Fam2.2 aminoacylation ribozyme variant] | 34.2 | 4.71 | 5.05 | 7.47 | 7.92 | 3.64
47 | ACUCACCUAGGUCAUCGGCUG [Fam2.2 aminoacylation ribozyme variant] | 7.96 | 2.1 | 3.01 | 1.31 | 2.35 | 2
48 | ACUCACCUAGGUCAUCGGGAG [Fam2.2 aminoacylation ribozyme variant] | 1.04 | 2.33 | 2.08 | 2.28 | 2.46 | 2.48
49 | ACUCACCUAGGUCAUCGGGCG [Fam2.2 aminoacylation ribozyme variant] | 2.07 | 3.12 | 2.63 | 3.85 | 2.63 | 2.66
50 | ACUCACCUAGGUCAUCGGGGG [Fam2.2 aminoacylation ribozyme variant] | 22.1 | 3.75 | 3.19 | 3.57 | 4.06 | 3.42
51 | ACUCACCUAGGUCAUCGGGUG [Fam2.2 aminoacylation ribozyme variant] | 105 | 9.45 | 9.32 | 19.8 | 13.9 | 15.9
